In the supplement of paper PMC9170038:

System: MS2 coat protein
Assay: apparent KD of MS2 coat protein; designed switch direction (-1 OFF switch, 1 ON switch): 1; higher = weaker reporter binding
Outline: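 Transcription of designed RNA switches on Illumina chips was done by stalled E. coli RNA polymerase. SNAP-549-labelled MS2 coat protein was then titrated in doubling steps from 0.7 or 1.5 nM to 3 µM, with steps of 0.8–1.5 h at the lowest and 10–20 min at the highest concentration. The per-design median over clusters of curve-fitted normalised fluorescence is reported as apparent KD.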

[1] = input ligand: microRNA oligo, concentration not stated

UCUGCAAGAACAGGAUAUGGGUUCAGAGCGCGAGUGCGCUUUGACACAUGAGGAUCACCCAUGUCCCAGAAGGGUUCAAGCGGC [Cexezadi] (Eterna round: R96, puzzle: Same State NG 2)
apparent KD of MS2 coat protein (input ligand: FMN 200 uM): 30 nM
apparent KD of MS2 coat protein [1]: 321 nM
apparent KD of MS2 coat protein (input ligand: none): 385 nM

UGUUGUAAUACAGGAUAUCUAUUAUUUUUAUUUAGAGAAGGGUAAUCACAUGAGGAUCACCCAUGUAUAUACGAGGAAGAAGAG [JMF's solution 4] (Eterna round: R96, puzzle: Same State NG 1)
apparent KD of MS2 coat protein [1]: 126 nM

CCAUAGUACAAUUUAGAUCUACAUGAGGAUCACCCAUGUACUGAGGAUAUCAGCUCGAUUAGAGCUGAGAAGGCAGAAUUAAUU [SSNG3/5-A2] (Eterna round: R96, puzzle: Same State NG 3)
apparent KD of MS2 coat protein (input ligand: FMN 200 uM): 58.4 nM
apparent KD of MS2 coat protein [1]: 96.8 nM
apparent KD of MS2 coat protein (input ligand: none): 122 nM

AGAGGAGGAGCAGGAUAUGCGAAGAAGAACGAGGUAGAAGGGCUCAUGCGAUGACAUGAGGAUCACCCAUGUACCGCGCGAGGA [AK SSNG1-V2-8.2] (Eterna round: R96, puzzle: Same State NG 1)
apparent KD of MS2 coat protein (input ligand: FMN 200 uM): 207 nM
apparent KD of MS2 coat protein [1]: 209 nM
apparent KD of MS2 coat protein (input ligand: none): 142 nM

AUUAAUUAAUUAAUACAUGAGGAUCACCCAUGUAAUAAGAUCUAGGAUAUCAGCUCGAUUAGAGCUGAGAAGGAGAUCACAUGU [SSNG3/17-A2] (Eterna round: R96, puzzle: Same State NG 3)
apparent KD of MS2 coat protein [1]: 36.3 nM

UGUUGUAUUACAGGAUAUCUAUUAUUUUUAUAUAGAGAAGGGUAUUCACAUGAGGAUCACCCAUGUAUAUACGAGGAAGUUGUG [JMF's solution 28] (Eterna round: R96, puzzle: Same State NG 1)
apparent KD of MS2 coat protein [1]: 29.6 nM

UGGCUGAGUCGAGGAUAUUAUGGAUCCUCUAAUACAUGAGGAUCACCCAUGUAAUUAAUUAUACAUGAGAAGGUGACUCAGCCA [SSNG2/12-B2] (Eterna round: R96, puzzle: Same State NG 2)
apparent KD of MS2 coat protein (input ligand: FMN 200 uM): 463 nM
apparent KD of MS2 coat protein [1]: 52.3 nM
apparent KD of MS2 coat protein (input ligand: none): 342 nM

AUUUUGAAUGCAGGAUAUGAUUAACAUGAGGAUCACCCAUGUGGUGUUGUGAGUAAGGAGAGUGAUCAGAAGGGCAUUUUUUUU [JMF's solution 96] (Eterna round: R96, puzzle: Same State NG 2)
apparent KD of MS2 coat protein (input ligand: FMN 200 uM): 599 nM
apparent KD of MS2 coat protein [1]: 452 nM
apparent KD of MS2 coat protein (input ligand: none): 445 nM

AACAGUCGGCGAGGAUAUGGACGUACGGACUAACCCGUGCAGCUCACAUGAGGAUCACCCAUGUUCUAGAAGGCGCCACUGAAA [Onesusatza] (Eterna round: R96, puzzle: Same State NG 2)
apparent KD of MS2 coat protein (input ligand: FMN 200 uM): 15.9 nM
apparent KD of MS2 coat protein [1]: 87.6 nM
apparent KD of MS2 coat protein (input ligand: none): 147 nM

GCACAUGAGGAUCACCCAUGUGCGCUUGGUUGUCCAAGCGCACAGGAUAUACCUCCCAAUGGGAGGUAGAAGGGUGAAAAGAAA [Orraveceat] (Eterna round: R96, puzzle: Same State NG 3)
apparent KD of MS2 coat protein (input ligand: FMN 200 uM): 12.4 nM
apparent KD of MS2 coat protein [1]: 10.9 nM
apparent KD of MS2 coat protein (input ligand: none): 16 nM

GAUUCACAUGAGGAUCACCCAUGUCGUUUUAUGGGAGGAUAUACGUGGACCGUAGUCCGCGUAGAAGGCCUAAUUG [JL-ss1-3.24 janelle mod] (puzzle: Same State 1)
apparent KD of MS2 coat protein (Eterna round: R95, input ligand: microRNA oligo, concentration not stated): 92.1 nM

AGAUCAUGACGAGGAUAUGGUACAUGAGGAUCACCCAUGUAUGUACUAUAAUUCGAAUGAGGAAUCCAGAAGGCGUCGUGGUCA [JL SSNG2 1.15] (Eterna round: R96, puzzle: Same State NG 2)
apparent KD of MS2 coat protein (input ligand: FMN 200 uM): 15.3 nM
apparent KD of MS2 coat protein [1]: 29.6 nM
apparent KD of MS2 coat protein (input ligand: none): 55.4 nM

GGGAGAGGUACAGGAUAUGGUGAGGAUCACCCACUAGAAGGGUGCACAUGUGAAUCGGACAUGAGGAUCACCCAUGUUUGGCGU (Eterna round: R96, puzzle: Same State NG 1)
apparent KD of MS2 coat protein (input ligand: FMN 200 uM): 86.7 nM
apparent KD of MS2 coat protein [1]: 74.8 nM
apparent KD of MS2 coat protein (input ligand: none): 133 nM
